Assay results taken from US20210079060A1 (ALETA BIOTHERAPEUTICS, published 2021).
Several values for one entry are separate records, joined by “and”; a condition that tells them apart may be missing. Identical values can stand only once. Like-named read-outs stand apart in the source and are kept apart here.

Assays:
Clec12A [1] = target: T1, Clec12A (human, UniProt Q5QGZ9 1-265); assay: FACS on Clec12A expressing U937 cells, detected with FMC63-PE
T1 construct: whole, on cells; also called CLL-1; MICL
T1 sequence (looked up): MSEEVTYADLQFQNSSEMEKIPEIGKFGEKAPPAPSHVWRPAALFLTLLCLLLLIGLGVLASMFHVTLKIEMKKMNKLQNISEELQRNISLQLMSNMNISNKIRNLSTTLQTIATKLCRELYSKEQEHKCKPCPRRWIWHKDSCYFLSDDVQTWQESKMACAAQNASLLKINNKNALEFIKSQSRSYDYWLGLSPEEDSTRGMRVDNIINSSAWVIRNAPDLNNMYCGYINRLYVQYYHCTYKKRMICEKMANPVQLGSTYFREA

Clec12A [2] = target: T1, Clec12A; assay: FACS on Clec12A expressing U937 cells, detected with a-His-PE
Clec12A [3] = target: T1, Clec12A; assay: FACS on Clec12A-expressing U937 cells, % Binding against concentration, detected with FMC63-PE
Protocol: (§1) In addition, bispecific constructs were generated and assayed. […] These constructs were assayed for binding to U937 cells. […] Cells were then spun, washed twice, fixed, and analyzed by FACS.

Clec12A [4] = target: T1, Clec12A; assay: sandwich ELISA: coated with FMC63, construct titrated (x-axis ug/ml), followed by Clec12A-bio, detected by HRP-SA
Clec12A [5] = target: T1, Clec12A; assay: FACS on Clec12A-expressing U937 cells, % Binding against concentration, detected with FMC63-PE; molar value with printed MW 43.7 kDa
Protocol: as §1

CD20 [6] = target: T2, CD20 (UniProt P11836 1-297, limits assumed); assay: FACS on 293T cells transfected with CD20, FMC63-PE detection
T2 construct: whole, on cells; also called CD20 positive HEK293 cells
T2 sequence (looked up): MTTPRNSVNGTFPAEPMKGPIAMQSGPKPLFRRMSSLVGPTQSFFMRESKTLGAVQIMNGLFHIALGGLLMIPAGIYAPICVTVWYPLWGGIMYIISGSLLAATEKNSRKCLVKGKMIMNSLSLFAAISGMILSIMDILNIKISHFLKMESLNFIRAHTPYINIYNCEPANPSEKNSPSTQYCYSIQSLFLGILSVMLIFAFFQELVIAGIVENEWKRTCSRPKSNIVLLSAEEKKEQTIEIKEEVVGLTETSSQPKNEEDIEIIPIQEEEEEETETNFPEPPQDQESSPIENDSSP

CD20 [7] = target: T2, CD20; assay: FACS on CD20 positive HEK293 cells, detected with FMC63-PE
CD20 [8] = target: T2, CD20; assay: binding to CD20 positive HEK293 cells (method of the fit not stated); scFv-based construct #302 (Leu16 scFv), not the full mAb
Clec12A [9] = target: T1, Clec12A; assay: sandwich ELISA: coated with FMC63, construct titrated (x-axis ug/ml), followed by Clec12A-bio, detected by HRP-SA; remark: listed apart in the source
Clec12A [10] = target: T1, Clec12A; assay: sandwich ELISA as for the other curves; the curve stays near 0.13 up to about 0.33 ug/ml and reaches only about 0.18 at 1 ug/ml (fit A 0.13, D 0.202)
Clec12A [11] = target: T1, Clec12A; assay: sandwich ELISA as for the other curves; the curve still rises at 1 ug/ml (about 1.33), no upper plateau; fit D 1.55
Clec12A [12] = target: T1, Clec12A; assay: sandwich ELISA: coated with FMC63, construct titrated, followed by Clec12A-bio, detected by HRP-SA
EGFR = target: T3, EGFR (UniProt P00533 25-1210, limits assumed); assay: binding to EGFR positive cells (data not shown)
T3 construct: whole, on cells; also called EGFR positive cells; EGFR positive H292 cells

CD20 [13] = target: T2, CD20; assay: binding to CD20 positive HEK293 cells (method of the fit not stated)
CD20 [14] = target: T2, CD20; assay: binding to CD20 positive cells; unit as printed in the table, but the x-axis of the curve is in ng/ml and the half-maximum lies near 20 on it
CD20 [15] = target: T2, CD20; assay: binding to CD20 positive cells; unit as printed in the table; it follows from 22.34 ug/ml and MW 210.8 kDa, while the curve's axis is in ng/ml

B1: anti-CLEC12a VHH 2H3-CD19 D1+2 C term mutant #2 (VHH)
VHH: QVQLQESGGGLVQAGGSLRLSCVASGSIRSINVMGWYRQAPGKQRELVAACASDGNTYYADSVKGRFTISRDNAEKTVYLQMNNLKPDDTAVYYCDANSRGNYYSGQGTQVTVSS
notes: also called construct #330
EC50 (Clec12A [1]): 0.0723 µg/mL and 1.54 nM
EC50 (Clec12A [2]): 0.0446 µg/mL and 0.95 nM
EC50 (Clec12A [3]): 0.0449 µg/mL
EC50 (read off the curve) (Clec12A [3]): ~0.05 µg/mL
C of the 4-P fit (midpoint) (Clec12A [4]): 0.0168 µg/mL
EC50 (Clec12A [4]): 0.0168 µg/mL and 0.361 nM
EC50 (Clec12A [5]): 1.03 nM

B2: CD19 D1+2-anti-CD20 scFv (VH/VL) (scFv)
chain: PEEPLVVKVEEGDNAVLQCLKGTSDGPTQQLTWSRESPLKPFLKLSLGLPGLGIHMRPLAIWLFIFNVSQQMGGFYLCQPGPPSEKAWQPGWTVNVEGSGELFRWNVSDLGGLGCGLKNRSSEGPSSPSGKLMSPKLYVWAKDRPEIWEGEPPCLPPRDSLNQSLSQDLTMAPGSTLWLSCGVPPDSVSRGPLSWTHVHPKGPKSLLSLELKDDRPARDMWVMETGLLLPRATAQDAGKYYCHRGNLTMSFHLEITARPGGGGSGGGGSGGGGSGGGGSMAQVKLQESGAELVKPGASVKMSCKASGYTFTSYNMHWVKQTPGQGLEWIGAIYPGNGDTSYNQKFKGKATLTADKSSSTAYMQLSSLTSEDSADYYCARSNYYGSSYWFFDVWGQGTTVTVSSGGGGSGGGGSGGGGSDIELTQSPTILSASPGEKVTMTCRASSSVNYMDWYQKKPGSSPKPWIYATSNLASGVPARFSGSGSGTSYSLTISRVEAEDAATYYCQQWSFNPPTFGGGTKLEIKRAAAHHHHHH
notes: Wild type CD19 D1+D2 N-terminal to the Leu16 scFv; also called construct #83; wild type CD19 D1+D2 fusion protein
EC50 (CD20 [6]): 0.379 µg/mL and 6.68 nM

B3: anti-CD20 scFv-CD19 D1+2 C term mutant #2 (scFv)
chain: QVKLQESGAELVKPGASVKMSCKASGYTFTSYNMHWVKQTPGQGLEWIGAIYPGNGDTSYNQKFKGKATLTADKSSSTAYMQLSSLTSEDSADYYCARSNYYGSSYWFFDVWGQGTTVTVSSASTGGGGSGGGGSGGGGSDIELTQSPTILSASPGEKVTMTCRASSSVNYMDWYQKKPGSSPKPWIYATSNLASGVPARFSGSGSGTSYSLTISRVEAEDAATYYCQQWSFNPPTFGGGTKLEIKRAAAGGGGSGGGGSGGGGSGGGGSPEEPLVVKVEEGDTAALWCLKGTSDGPTQQLTWSRESPLKPFLKYSLGVPGLGVHVRPDAISVVIRNVSQQMGGFYLCQPGPPSEKAWQPGWTVNVEGSGELFRWNVSDLGGLGCGLKNRSSEGPSSPSGKLMSPKLYVWAKDRPEIWEGEPPCLPPRDSLNQSLSRDLTVAPGSTLWLSCGVPPDSVSRGPLSWTHVHPKGPKSLLSLELKDDRPARDMWVMGTSLMLPRATAQDAGKWYCHRGNLTMSFHLEITARPSRHHHHHH
notes: scFv of anti-CD20 mAb Leu16 fused to a CD19 variant; also called Leu16scFv-CD19 construct
EC50 (CD20 [7]): 0.161 µg/mL and 2.78 nM
EC50 (CD20 [6]): 0.0754 µg/mL and 1.3 nM
Kd (CD20 [8]): ~3 nM

B4: CD19 ECD N term mutant #2-G4Sx4-anti CLEC12a VHH 1B12-His (VHH)
chain: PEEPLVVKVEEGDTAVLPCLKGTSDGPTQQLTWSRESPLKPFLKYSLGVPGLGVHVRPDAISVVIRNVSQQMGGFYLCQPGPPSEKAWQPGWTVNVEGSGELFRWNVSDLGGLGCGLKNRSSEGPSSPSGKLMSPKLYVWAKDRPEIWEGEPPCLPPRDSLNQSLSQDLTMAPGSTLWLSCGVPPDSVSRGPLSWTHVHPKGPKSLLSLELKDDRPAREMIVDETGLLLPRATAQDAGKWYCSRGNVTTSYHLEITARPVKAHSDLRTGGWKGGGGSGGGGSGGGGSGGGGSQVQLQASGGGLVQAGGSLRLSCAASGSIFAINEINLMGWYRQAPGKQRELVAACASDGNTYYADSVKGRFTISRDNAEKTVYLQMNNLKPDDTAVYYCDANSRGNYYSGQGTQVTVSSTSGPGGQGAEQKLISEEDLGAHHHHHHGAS
notes: CD19 variant-VHH fusion; also called CD19-VHH1B12/Clec12A
EC50 (Clec12A [1]): 0.155 µg/mL and 3.3 nM
EC50 (Clec12A [2]): 0.233 µg/mL and 4.96 nM
C of the 4-P fit (midpoint) (Clec12A [9]): 0.00403 µg/mL
EC50 (Clec12A [9]): 0.004 µg/mL and 0.086 nM

B5: #331 (VHH)
VHH: QVQLQQSGGGLVQAGGSLTLSCAATGRTIDNGAMAWFRQAPGKQRELVAAINWSGGATFYTDSVKYRFTISRDNVRHTLDLQMTSLKPEDTTIYFCASRRGVDLRRNSYEYDYWGRGTLVTVSS
notes: also called anti CLEC12a VHH 2C2-G4Sx4-CD19 C-term mutant #2-His
EC50 (Clec12A [10]): 0.698 µg/mL and 15 nM

B6: #328 (VHH)
VHH: QVQLQESGGGLVQPGGSLRLSCAASGFTFNSYAMTWVRQAPGKGLEWVSDINSGGGSTNYADSVKGRFTISRDNAKNTLYLQMNSLKPEDTAVYYCATELRGSDYYRGPIREYAYWGQGTLVTVSS
notes: also called anti CLEC12a VHH 1H1-G4Sx4-CD19 C-term mutant #2-His
EC50 (Clec12A [11]): 0.155 µg/mL and 3.33 nM

B7: #320 (VHH)
fusion protein, single chain: PEEPLVVKVEEGDTAVLPCLKGTSDGPTQQLTWSRESPLKPFLKYSLGVPGLGVHVRPDAISVVIRNVSQQMGGFYLCQPGPPSEKAWQPGWTVNVEGSGELFRWNVSDLGGLGCGLKNRSSEGPSSPSGKLMSPKLYVWAKDRPEIWEGEPPCLPPRDSLNQSLSQDLTMAPGSTLWLSCGVPPDSVSRGPLSWTHVHPKGPKSLLSLELKDDRPAREMIVDETGLLLPRATAQDAGKWYCSRGNVTTSYHLEITARPVKAHSDLRTGGWKGGGGSGGGGSGGGGSGGGGSAVQLQESGGGLVQAGGSLRLSCAASGSDRSINVMNWYRQAPGKQRELVAAITSGGTTNYAQSVKGRVTISRDSAKNTVYLQMNSLKPEDTAVYFCKADTRWGGMYWGPGTQVTVSSTSGPGGQGAEQKLISEEDLGAHHHHHHGAS
notes: also called construct #320; CD19 mutant #2-G4Sx4-anti CLEC12a VHH 1B11 myc His
binding result (Clec12A [12]): no binding (tested: 1 ug/ml)

B8: CD19 ECD N term mutant#-EGFR Fn3 (designed binder)
chain: PEEPLVVKVEEGDTAALWCLKGTSDGPTQQLTWSRESPLKPFLKYSLGVPGMGVHVRPNAVSLVISNVSQQMGGFYLCQPGPPSEKAWQPGWTVNVEGSGELFRWNVSDLGGLGCGLKNRSSEGPSSPSGKLMSPKLYVWAKDRPEIWEGEPPCLPPRDSLNQSLSRDMTVAPGSTLWLSCGVPPDSVSRGPLSWTHVHPKGPKSLLSLELKDDRPARDMWVMETGLVLPRATAQDAGKWYCHRGNVTTSYHLEITARPVSAHTPLRTGGWKGGGGSGGGGSGGGGSGGGGSVSDVPRDLEVVAATPTSLLISWFDYAVTYYRITYGETGGNSPVQEFTVPGWISTATISGLKPGVDYTITVYAVTDNSHWPFRSTPISTNYRTEIDKPPQHHHHHH
notes: Fusion protein; also called construct #230; CD19-Fn3/EGFR
binding result (EGFR): binds

B9: Rituximab-CD19 construct (#377/378) (antibody, human IgG1, kappa)
light: QIVLSQSPAILSASPGEKVTMTCRASSSVSYIHWFQQKPGSSPKPWIYATSNLASGVPVRFSGSGSGTSYSLTISRVEAEDAATYYCQQWTSNPPTFGGGTKLEIKRTVAAPSVFIFPPSDEQLKSGTASVVCLLNNFYPREAKVQWKVDNALQSGNSQESVTEQDSKDSTYSLSSTLTLSKADYEKHKVYACEVTHQGLSSPVTKSFNRGECGGGGSGGGGSGGGGSGGGGSPEEPLVVKVEEGDTAALWCLKGTSDGPTQQLTWSRESPLKPFLKYSLGVPGLGVHVRPDAISVVIRNVSQQMGGFYLCQPGPPSEKAWQPGWTVNVEGSGELFRWNVSDLGGLGCGLKNRSSEGPSSPSGKLMSPKLYVWAKDRPEIWEGEPPCLPPRDSLNQSLSRDLTVAPGSTLWLSCGVPPDSVSRGPLSWTHVHPKGPKSLLSLELKDDRPARDMWVMGTSLMLPRATAQDAGKWYCHRGNLTMSFHLEITARPSRHHHHHH
heavy: not shown
notes: also called Rituximab-based construct; wild type Rituximab-CD19 construct
Kd (CD20 [13]): ~0.016 nM
EC50 (CD20 [7]): 0.00343 µg/mL and 0.0163 nM
EC50 (CD20 [14]): 22.3 µg/mL
EC50 (CD20 [15]): 106 nM
